Reference: patent US20050261179

Tests used:
[1] = molecular target: T1, adrenomedullin (synthetic human AM)
T1 chain: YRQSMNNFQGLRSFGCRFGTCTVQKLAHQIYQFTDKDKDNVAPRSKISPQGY

[2] = molecular target: T2, human complement factor H, P08603
T2 chain: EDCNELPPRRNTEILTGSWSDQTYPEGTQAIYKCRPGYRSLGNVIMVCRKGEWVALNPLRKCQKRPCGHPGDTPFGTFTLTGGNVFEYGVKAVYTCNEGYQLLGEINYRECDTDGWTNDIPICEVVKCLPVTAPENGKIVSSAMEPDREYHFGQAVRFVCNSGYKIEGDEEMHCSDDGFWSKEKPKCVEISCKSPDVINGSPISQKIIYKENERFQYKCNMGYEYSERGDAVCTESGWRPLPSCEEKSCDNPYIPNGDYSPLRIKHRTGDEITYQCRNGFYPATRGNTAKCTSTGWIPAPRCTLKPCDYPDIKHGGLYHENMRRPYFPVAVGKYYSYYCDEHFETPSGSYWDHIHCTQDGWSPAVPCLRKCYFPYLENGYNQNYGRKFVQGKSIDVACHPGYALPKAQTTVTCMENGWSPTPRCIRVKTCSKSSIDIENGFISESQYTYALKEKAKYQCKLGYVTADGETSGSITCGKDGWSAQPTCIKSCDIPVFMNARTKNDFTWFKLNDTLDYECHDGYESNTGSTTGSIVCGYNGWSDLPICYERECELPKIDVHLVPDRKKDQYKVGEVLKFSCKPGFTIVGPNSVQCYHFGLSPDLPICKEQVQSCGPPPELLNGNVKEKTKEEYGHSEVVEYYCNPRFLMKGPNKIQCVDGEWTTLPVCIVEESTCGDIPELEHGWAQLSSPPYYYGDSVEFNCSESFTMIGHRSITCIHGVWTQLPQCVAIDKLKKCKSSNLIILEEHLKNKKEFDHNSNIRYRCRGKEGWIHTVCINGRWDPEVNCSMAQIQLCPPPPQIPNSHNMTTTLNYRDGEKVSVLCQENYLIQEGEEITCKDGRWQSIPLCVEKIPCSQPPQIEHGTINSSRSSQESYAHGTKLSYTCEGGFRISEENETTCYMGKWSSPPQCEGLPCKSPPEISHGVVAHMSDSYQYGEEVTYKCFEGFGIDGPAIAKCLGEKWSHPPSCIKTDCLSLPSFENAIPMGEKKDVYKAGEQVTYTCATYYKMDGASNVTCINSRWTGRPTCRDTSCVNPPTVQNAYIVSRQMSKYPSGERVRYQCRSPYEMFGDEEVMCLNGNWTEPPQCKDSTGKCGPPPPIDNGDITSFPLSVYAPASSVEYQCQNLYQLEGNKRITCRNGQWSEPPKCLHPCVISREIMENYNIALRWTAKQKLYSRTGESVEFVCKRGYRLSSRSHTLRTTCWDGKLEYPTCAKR

B1: human recombinant MMP-2 (protein)
chain: YNFFPRKPKWDKNQITYRIIGYTPDLDPETVDDAFARAFQVWSDVTPLRFSRIHDGEADIMINFGRWEHGDGYPFDGKDGLLAHAFAPGTGVGGDSHFDDDELWTLGEGQVVRVKYGNADGEYCKFPFLFNGKEYNSCTDTGRSDGFLWCSTTYNFEKDGKYGFCPHEALFTMGGNAEGQPCKFPFRFQGTSYDSCTTEGRTDGYRWCGTTEDYDRDKKYGFCPETAMSTVGGNSEGAPCVFPFTFLGNKYESCTSAGRSDGKMWCATTANYDDDRKWGFCPDQGYSLFLVAAHEFGHAMGLEHSQDPGALMAPIYTYTKNFRLSQDDIKGIQELYGASPDIDLGTGPTPTLGPVTPEICKQDIVFDGIAQIRGEIFFFKDRFIWRTVTPRDKPMGPLLVATFWPELPEKIDAVYEAPQEEKAVFFAGNEYWIYSASTLERGYPKPLTSLGLPPDVQRVDAAFNWSKNKKTYIFAGDKFWRYNEVKKKMDPGFPKLIADAWNAIPDNLDAVVDLQGGGHSYFFKGAYYLKLENQSLKSVKFGSIKSDWLGC
With B1 the “AM fragments generated by MMP-2 digestion (mass spectrometry of HPLC peaks)” value [1] was “These include AM(8-52), AM(11-52), AM(23-52), AM(29-52), AM(11-28), and AM(11-22)”, the “degradation of synthetic AM (gel, HPLC, mass spectrometry)” value [1] was “MMP-2 rapidly cleaves synthetic AM in a time-dependent manner” and the “degradation of factor H (gel)” value [2] was “is not a substrate for either one of the MMPs”.
